Assay results: patent US5175251A, “Antimetastatic peptides with laminin activity” (SRI International, priority 1991, dated 1992)

Legend:
[1] = system: B16/F10 cells (murine melanoma); experiment: Cell adhesion assay: tumor cells bound to peptide-coated wells; type: cell-based; settings: summary of Table 1
Experimental: The cell-adhesion assay measures the binding of tumor cells to laminin immobilized on the surface of a culture dish. The peptides of the invention can be substituted for the immobilized laminin to measure the binding constants of the peptides and compare binding constants of the peptides of the invention with laminin or other known laminin peptides. In this assay, solubilized peptides are incubated on tissue culture well plates and nonspecific cell binding is blocked by the addition of bovine serum albumin (BSA). Tumor cells are added to the wells and nonadherent cells are removed by washing with phosphate-buffered saline (PBS). Attached cells may be trypsinized and counted electronically or the cells may be fixed, stained with chemical agents, such as crystal violet solution and the optical density of the solutions determined using a microtiter plate reader in the range from 590-405 nm. Extrapolation of OD to the number of cells bound may be obtained by comparison of readings to a standard curve obtained by incubating various numbers of cells in tissue culture wells for a time sufficient to allow firm attachment but not permit significant cell division (about 5 h), and washing and staining as above. […]

[2] = Isoelectric point; type: physicochemical
Source text: The anion exchange resin is usually employed in the form of a packed column. The column is equilibrated using conventional techniques and the solution of the cleaved reaction products is loaded onto the column. […] The peptide is eluted by increasing the ionic strength of the buffered solution, typically from 0 to 0.75M NaCl. The column can be regenerated by washing with solutions of NaOH and nonionic detergents to remove any residual contaminating protein or solubilizing agents and equilibrating the column.
For example, when the laminin B1 peptide is fused to CTAP-III(Leu21), an anion exchange column (for example, either Mono-Q or Q Sepharose from Pharmacia) may be employed to separate the two proteins on the basis of differences in their isoelectric points (LamB1 -40(Ser27) peptide=3.65, CTAP-III=7.8). […] Elution of the peptide may be performed with a linear gradient (0 to 0.5M) of NaCl. Pooled fractions of LamB1 -40, typically greater than 90% pure, may optionally be subjected to further purification using hydrophobic interaction chromatography (HIC), gel filtration chromatography, reverse-phase liquid chromatography or combinations thereof.

Molecule	Binding of metastatic tumor cells compared with YIGSR or CDPGYIGSR [1]	isoelectric point (pI) [2]
NH2 -Pro-Cys-Pro-Asp-Gly-Pro-Asp-Ser-Gly-Arg-Gln-Phe-Ala-Arg-Ser-Cys-Tyr -Gln-Asp-Pro-Val-Thr-Leu-Gln-Leu-Ala-Ser-Val-Cys-Asp-Pro-Gly-Tyr-Ile-Gly-Ser-Arg-Cys-Asp-Asp-OH (H-PCPDGPDSGRQFARSCYQDPVTLQLASVCDPGYIGSRCDD-OH; cysteine pairing not given here) [LamB1 -40(Ser27), recombinant 40 amino acid laminin B1 peptide, Cys at position 923 replaced with serine]	binds metastatic tumor cells more effectively	3.65
CTAP-III: naturally occurring polypeptide isolated from human platelets that is capable of activating connective tissue cells (protein, UniProt P02775 44-128, looked up, Connective tissue-activating peptide III) Connective tissue-activating …: NLAKGKEESLDSDLYAELRCMCIKTTSGIHPKNIQSLEVIGKGTHCNQVEVIATLKDGRKICLDPDAPRIKKIVQKKLAGDESAD		7.8
